B1: Receptor-type tyrosine-protein phosphatase eta (Homo sapiens), Q12913 (parent)
chain: MKPAAREARLPPRSPGLRWALPLLLLLLRLGQILCAGGTPSPIPDPSVATVATGENGITQISSTAESFHKQNGTGTPQVETNTSEDGESSGANDSLRTPEQGSNGTDGASQKTPSSTGPSPVFDIKAVSISPTNVILTWKSNDTAASEYKYVVKHKMENEKTITVVHQPWCNITGLRPATSYVFSITPGIGNETWGDPRVIKVITEPIPVSDLRVALTGVRKAALSWSNGNGTASCRVLLESIGSHEELTQDSRLQVNISGLKPGVQYNINPYLLQSNKTKGDPLGTEGGLDASNTERSRAGSPTAPVHDESLVGPVDPSSGQQSRDTEVLLVGLEPGTRYNATVYSQAANGTEGQPQAIEFRTNAIQVFDVTAVNISATSLTLIWKVSDNESSSNYTYKIHVAGETDSSNLNVSEPRAVIPGLRSSTFYNITVCPVLGDIEGTPGFLQVHTPPVPVSDFRVTVVSTTEIGLAWSSHDAESFQMHITQEGAGNSRVEITTNQSIIIGGLFPGTKYCFEIVPKGPNGTEGASRTVCNRTVPSAVFDIHVVYVTTTEMWLDWKSPDGASEYVYHLVIESKHGSNHTSTYDKAITLQGLIPGTLYNITISPEVDHVWGDPNSTAQYTRPSNVSNIDVSTNTTAATLSWQNFDDASPTYSYCLLIEKAGNSSNATQVVTDIGITDATVTELIPGSSYTVEIFAQVGDGIKSLEPGRKSFCTDPASMASFDCEVVPKEPALVLKWTCPPGANAGFELEVSSGAWNNATHLESCSSENGTEYRTEVTYLNFSTSYNISITTVSCGKMAAPTRNTCTTGITDPPPPDGSPNITSVSHNSVKVKFSGFEASHGPIKAYAVILTTGEAGHPSADVLKYTYEDFKKGASDTYVTYLIRTEEKGRSQSLSEVLKYEIDVGNESTTLGYYNGKLEPLGSYRACVAGFTNITFHPQNKGLIDGAESYVSFSRYSDAVSLPQDPGVICGAVFGCIFGALVIVTVGGFIFWRKKRKDAKNNEVSFSQIKPKKSKLIRVENFEAYFKKQQADSNCGFAEEYEDLKLVGISQPKYAAELAENRGKNRYNNVLPYDISRVKLSVQTHSTDDYINANYMPGYHSKKDFIATQGPLPNTLKDFWRMVWEKNVYAIIMLTKCVEQGRTKCEEYWPSKQAQDYGDITVAMTSEIVLPEWTIRDFTVKNIQTSESHPLRQFHFTSWPDHGVPDTTDLLINFRYLVRDYMKQSPPESPILVHCSAGVGRTGTFIAIDRLIYQIENENTVDVYGIVYDLRMHRPLMVQTEDQYVFLNQCVLDIVRSQKDSKVDLIYQNTTAMTIYENLAPVTTFGKTNGYIA

Variants of: B1
Settings: with mk03_human MAPK3, P27361
Sequence of mk03_human MAPK3, P27361 (P27361 whole entry): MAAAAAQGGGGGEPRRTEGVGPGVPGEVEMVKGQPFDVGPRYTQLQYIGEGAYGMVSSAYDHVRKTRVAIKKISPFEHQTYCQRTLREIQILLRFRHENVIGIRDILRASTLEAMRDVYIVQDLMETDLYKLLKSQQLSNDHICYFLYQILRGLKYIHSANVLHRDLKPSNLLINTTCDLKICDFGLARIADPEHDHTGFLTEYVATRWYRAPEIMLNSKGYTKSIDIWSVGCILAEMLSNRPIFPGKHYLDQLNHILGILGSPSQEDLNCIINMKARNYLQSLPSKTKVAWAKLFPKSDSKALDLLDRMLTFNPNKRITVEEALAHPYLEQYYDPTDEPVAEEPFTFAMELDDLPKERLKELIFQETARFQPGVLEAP

Row | Variant | effect of a mutation on the interaction
1 | K1031A | decreasing interaction

— IntAct's records for PubMed 19494114
